Measurements reported in patent US5714144A, “Human tissue-type plasminogen activator variant” (Genentech, Inc., priority 1995, dated 1998).
“And” between values parts separate entries of the source, which are not always exact repeats. Equal entries are not always repeated. Where two headings read alike, the source gives them in different places.

Key:
[1] = removal of sialic acid or chemical modification of carbohydrate; cited from earlier work
[2] = test system: rat liver endothelial cells; conditions: cited from earlier work
[3] = effect of monosaccharides, rats; cited from earlier work
[4] = effect of PMSF titration of active site or coinjection of diisopropylfluorophosphate thrombin, asialoorosomucoid, macroalbumin or excess unlabeled t-PA; mice; cited from earlier work
[5] = Pharmacokinetics of unlabeled rt-PA in rabbits, immunoreactive t-PA by sandwich ELISA, i.v. bolus; format: in vivo; conditions: for Microconstant K10: elimination from central compartment; for Microconstant K10 / Microconstant K12 / Microconstant K21: Table 3; for Microconstant K12 / Microconstant K21: equilibration with peripheral compartment
Procedure: (§1) The unlabeled human tissue-type plasminogen activator was used as a carrier for the trace amount of labeled human tissue-type plasminogen activator in order to achieve therapeutic levels and to avoid alterations in the pharmacokinetics that could arise from concentration dependence in the clearance pathways. Serial arterial blood samples were collected over a 26 minute period and placed immediately into tubes containing a lyophilized mixture of D-phe-pro-arg-[…] (PPACK) and EDTA at final concentrations of 1 μM and 4.8 mM, respectively. The tubes were placed on ice and plasma was separated. Trichloroacetic acid (TGA) precipitable (intact human tissue-type plasminogen activator) and total radioactivity were measured in each plasma sample.
(§2) The following exponential equation was used: Cp=Ae^-αt +Be^-βt, where Cp is the concentration of rt-PA in the plasma at any time, t and A and B are the y intercepts of the fast and slow clearance phases which have slopes of α and β, respectively. The t1/2 for the α and β phases were calculated as the ratio: 1n2/slope. The results from the curve stripping procedure were used as initial approximations to fit the data to a biexponential model using PC NONLIN. One data set (FIG. 4) could not be fit using PC NONLIN so the data from the curve stripping procedure were used. Co, the plasma concentration at zero time, was the sum of A and B. Vo was calculated as dose divided by Co. Area under the curve (AUC) was determined by formula AUC=A/α+B/β. […] AUC was then used to calculate the clearance using the formula, Clearance=Dose/AUC. The relative contributions of the alpha and beta phases were calculated from the following formulas: [formula]
The data for Table 2 were fit to a model with direct elimination from the central compartment (K10) and equilibration with a peripheral compartment (K12 and K21).
(§3) Two types of data were generated from in vivo clearance studies in rabbits. One is from the immunoreactive human tissue-type plasminogen activator which should be a measure of the clearance of the unlabeled material. […] The curves of plasma concentration versus time from the immunoreactivity and the TGA precipitable counts were fit to the appropriate multiexponential models and the derived pharmacokinetic parameters were compared.

clot = assay: In vitro clot lysis assay (Collen et al.), fibrinolytic activity; format: biochemical
Excerpt: After reduction and carboxymethylation, 34.2 nmoles (expected number is 35) of carboxymethyl cysteine per nmole of rt-PA were recovered in the periodate-treated sample. […] However, with reduction and carboxymethylation,methionine recoveries increased to 3.3 and 2.8 nmoles for the periodate-treated and untreated materials respectively. […] There was no significant difference in recovery of the other amino acids between the periodate-treated and untreated rt-PA (data not shown). […] The specific activity of the periodate-treated PA was 91% that of the control rt-PA as measured by an in vitro clot lysis assay (Collen, D. et al., J. Clin. Path, 21:705-707 [1968]).

[6] = Pharmacokinetics of 125I labeled rt-PA in rabbits, trichloroacetic acid (TCA) precipitable radioactivity, i.v. bolus; format: in vivo
Excerpt: Arginine, 0.2M, and citrate, 0.1M, (pH 6.0) and Tween 80, 0.01 percent, was the buffer used at all times. All samples were dialyzed into this buffer prior to iodination. pH was adjusted to 8.2 with Tris base prior to iodination. The iodination mixture was passed across a PD-10 column (Pharmacia) equilibrated with pH 6.0 buffer, the radioactive fractions from the void volume were pooled, SDS-PAGE was run and the dried gel was autoradiographed.
as §1, §2, §3
The remaining modified forms of rt-PA were not available in quantities which would allow the pharmacokinetics to be characterized using the above techniques. Therefore the pharmacokinetic characteristics of these materials were determined following iodination.
The labeled rt-PA was always coinjected with 1 mg/kg of unmodified rt-PA. The rt-PA with high mannose oligosaccharide structures at all glycosylation sites, produced in the CHO 15B cell line, was also included in this experiment.

[7] = glycosylated versus deglycosylated; cited from earlier work
rat liver hepatocytes = conditions: in vitro; cited from earlier work
[8] = clinical trials; cited from earlier work
liver = conditions: in vivo; cited from earlier work
[9] = rabbits; cited from earlier work
[10] = humans; cited from earlier work
[11] = unlabeled rt-PA, i.v. bolus, doses control 1.0, ENDO 0.83, periodate […], n=5, Table 3
[12] = labeled rt-PA 10 μCi/kg, coinjected with 1 mg/kg unmodified rt-PA, Table 5
[13] = immunoreactive rt-PA (IR), unlabeled, 1 mg/kg, n=4, Table 4
[14] = TCA precipitable radioactivity, labeled, 3.4 μCi/kg, n=4, Table 4

Substance: urokinase
- half-life change [1]: extending the half-life

Substance: melanoma-derived t-PA: t-PA isolated from melanoma cell line
- uptake [2]: a pathway that could be inhibited by high mannose glycoproteins
- clearance [3]: unaffected by monosaccharides
- elimination [4]: unaffected

Substance: Periodate
- elimination ([5]; FIG. 4, unlabeled): slow the elimination of rt-PA
- Microconstant K10 ([5]; unlabeled rt-PA): 63 min^-1 × 10^3
- Microconstant K12 ([5]; unlabeled rt-PA): 72 min^-1 × 10^3
- Microconstant K21 ([5]; unlabeled rt-PA): 54 min^-1 × 10^3
- Vo, difference versus control ([5]; unlabeled): no significant differences
- fold slower rate of clearance than control rt-PA ([5]; unlabeled): 2.7 fold
- t1/2 alpha, change versus control ([5]; unlabeled): significant increase
- t1/2 beta, difference versus control ([5]; unlabeled): no significant differences
- Cl [5, 11]: 3.53 mL/min/kg
- T1/2 α [5, 11]: 4.22 min
- T1/2 β [5, 11]: 37.5 min
- specific activity relative to control rt-PA (clot; in vitro clot lysis assay, % of control rt-PA): 91%
- fibrinolytic activity (clot; in vitro clot lysis, versus untreated control): did not alter the activity of the rt-PA significantly
- rate of clearance versus control ([6]; labeled): smaller rates of clearance than the control rt-PA
- relative size of alpha and beta phase ([6]; labeled): the dominant change in the elimination pattern of the Endo-H and Periodate treated rt-PA again appears to be in the relative size of the alpha and beta phase
- % AUCα [6, 12]: 32%
- % AUCβ [6, 12]: 68%
- Cl [6, 12]: 2.74 mL/min/kg
- T1/2 α [6, 12]: 3.30 min
- T1/2 β [6, 12]: 30.3 min
- Vo [6, 12]: 0.0326 L/kg

Substance: transferrin: transferrin, serum glycoprotein, after removal of sialic acid
- half-life change [1]: no significant effect on half-life

Substance: deglycosylated human tissue-type plasminogen activator: deglycosylated human tissue-type plasminogen activator (Larsen et al.)
- in vivo clearance rate [7]: not significantly different

Substance: Control: wild type recombinant human tissue-type plasminogen activator (rt-PA)
- binding affinity (rat liver hepatocytes): bind with high affinity to rat liver hepatocytes
- Microconstant K10 ([5]; unlabeled rt-PA): 227 min^-1 × 10^3
- Microconstant K12 ([5]; unlabeled rt-PA): 35 min^-1 × 10^3
- Microconstant K21 ([5]; unlabeled rt-PA): 42 min^-1 × 10^3
- % AUCα [5, 13]: 81.5%
- % AUCβ [5, 13]: 18.5%
- Cl [5, 13]: 5.51 mL/min/kg
- T1/2 α [5, 13]: 21.3 min
- T1/2 β [5, 13]: 3.05 min
- Vo [5, 13]: 0.03 L/kg
- Cl [5, 11]: 9.57 mL/min/kg
- T1/2 α [5, 11]: 2.61 min
- T1/2 β [5, 11]: 19.6 min
- effect on fibrinogen levels in the blood [8]: minimal effects on fibrinogen levels in the blood
- thrombolytic efficacy [8]: extremely effective thrombolytic agent
- site of uptake and metabolism (liver): The liver is the most significant site of t-PA uptake and metabolism
- alpha phase half life [9]: about 2 min
- elimination of labeled versus unlabeled rt-PA ([6]; TCA precipitable counts versus immunoreactivity): cleared more slowly
- % AUCα [6, 14]: 62.1%
- % AUCβ [6, 14]: 37.9%
- Cl [6, 14]: 3.92 mL/min/kg
- T1/2 α [6, 14]: 30.3 min
- T1/2 β [6, 14]: 3.36 min
- Vo [6, 14]: 0.0277 L/kg
- % AUCα [6, 12]: 52%
- % AUCβ [6, 12]: 48%
- Cl [6, 12]: 5.72 mL/min/kg
- T1/2 α [6, 12]: 2.55 min
- T1/2 β [6, 12]: 14.9 min
- Vo [6, 12]: 0.0315 L/kg
- alpha phase half life [10]: 4 min and 6 min
